Where two headings read alike, the source gives them in different places.
Columns and labels:
[1] = biological target: IgG1 heavy chain with CH3 construct 2 (K392D, K409D) and common light chain (human) [IgG part: P01857]; test: native MS, transfection #11 of Table 24; fibrinogen VH on construct 1 with fibrinogen VH on construct 2
[2] = biological target: IgG1 heavy chain with CH3 construct 2 (K392D, K409D) and common light chain (human) [IgG part: P01857]
[3] = biological target: IgG1 heavy chain with CH3 construct 8 (Q347K) and common light chain (human) [IgG part: P01857]
[4] = biological target: IgG1 heavy chain with CH3 construct 67 (K360D) and common light chain (human) [IgG part: P01857]
[5] = biological target: IgG1 heavy chain with CH3 construct 61 (L351K) and common light chain (human) [IgG part: P01857]
[6] = biological target: IgG1 heavy chain with CH3 construct 64 (T366D) and common light chain (human) [IgG part: P01857]

IgG1 heavy chain with CH3 construct 1 (E356K, D399K) and common light chain (from UniProt P01857-1)
% of the mixture (peak height) [1]: 61%
% of the mixture (peak height) [2]: 67%

IgG1 heavy chain with CH3 construct 8 (Q347K) and common light chain (from UniProt P01857-1)
AA found (%) [3]: 34%
AC found (%) [4]: 41%

IgG1 heavy chain with CH3 construct 61 (L351K) and common light chain (from UniProt P01857-1)
AA found (%) [5]: 30%
AC found (%) [6]: 52%
